Target: Raf2 fused to Gal4 DNA-binding domain (UniProt O74560)
Assay: yeast two-hybrid (β-galactosidase)
Settings: Ccq1 fused to Gal4 activation domain, read off a plot

Sequence of Raf2 fused to Gal4 DNA-binding domain (O74560 whole entry, the tested form may be a part): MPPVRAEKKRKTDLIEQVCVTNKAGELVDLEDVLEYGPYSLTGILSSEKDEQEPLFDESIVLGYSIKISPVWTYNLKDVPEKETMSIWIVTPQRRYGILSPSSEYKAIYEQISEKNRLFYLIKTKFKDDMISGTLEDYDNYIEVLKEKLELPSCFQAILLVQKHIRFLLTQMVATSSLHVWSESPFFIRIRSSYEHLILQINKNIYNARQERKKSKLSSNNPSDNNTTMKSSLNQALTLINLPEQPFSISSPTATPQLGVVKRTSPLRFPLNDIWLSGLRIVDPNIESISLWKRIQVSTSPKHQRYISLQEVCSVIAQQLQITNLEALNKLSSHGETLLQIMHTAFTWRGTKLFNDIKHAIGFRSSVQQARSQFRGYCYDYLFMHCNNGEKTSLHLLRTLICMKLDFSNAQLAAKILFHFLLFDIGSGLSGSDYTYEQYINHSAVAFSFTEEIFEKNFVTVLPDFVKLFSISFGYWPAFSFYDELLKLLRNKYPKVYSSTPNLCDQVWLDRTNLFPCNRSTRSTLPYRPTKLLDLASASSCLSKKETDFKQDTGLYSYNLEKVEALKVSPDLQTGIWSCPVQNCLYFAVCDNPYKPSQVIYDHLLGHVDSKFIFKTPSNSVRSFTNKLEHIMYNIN
Sequence of Ccq1_(496–583), Raf2-binding motif of Ccq1, fused to Gal4 activation domain (Q10432 496-583, stated change not applied): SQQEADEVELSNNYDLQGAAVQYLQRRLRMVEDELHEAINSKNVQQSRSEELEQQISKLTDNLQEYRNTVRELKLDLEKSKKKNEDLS

response: 80
Substance: Ccq1_(496–583), Raf2-binding motif of Ccq1, fused to Gal4 activation domain (from UniProt Q10432) V570R

Reference: article PMC8424379 (2021)
